Five molecules from paper PMC8754647, “A minimal motif for sequence recognition by mitochondrial transcription factor A (TFAM)” can be followed below.

The target in data set [1] is T1, TFAM (UniProt Q00059 43-246).
T1 sequence: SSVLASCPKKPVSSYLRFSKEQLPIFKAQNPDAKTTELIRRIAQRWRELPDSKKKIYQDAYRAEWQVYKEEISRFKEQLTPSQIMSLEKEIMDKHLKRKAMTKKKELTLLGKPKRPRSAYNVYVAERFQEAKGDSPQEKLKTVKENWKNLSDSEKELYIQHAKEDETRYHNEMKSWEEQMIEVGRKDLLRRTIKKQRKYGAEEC
Nature of the data set: fluorescence polarization; 150 mM NaCl; EMSA: 10 mM HEPES pH 8.0, 500 mM NaCl, 2 mM DTT, 130 ug/ml BSA, 5% glycerol, 100 nM DNA, 30 min on ice then 10 min RT; FP: 10 mM HEPES pH 8.0, 150-400 mM NaCl. As to conditions: protein: recombinant; tags: His-MBP N-terminal, removed by TEV; label: 5'-Cy3 on strand 1 (EMSA); 6-FAM (FP); blunt.

Data set [2] deals with T1, TFAM. Put plainly: fluorescence polarization; 200 mM NaCl; EMSA: 10 mM HEPES pH 8.0, 500 mM NaCl, 2 mM DTT, 130 ug/ml BSA, 5% glycerol, 100 nM DNA, 30 min on ice then 10 min RT; FP: 10 mM HEPES pH 8.0, 150-400 mM NaCl. Conditions: protein: recombinant; tags: His-MBP N-terminal, removed by TEV; label: 5'-Cy3 on strand 1 (EMSA); 6-FAM (FP); blunt.
For data set [3], the target named is T1, TFAM. Put plainly: fluorescence polarization; 250 mM NaCl; EMSA: 10 mM HEPES pH 8.0, 500 mM NaCl, 2 mM DTT, 130 ug/ml BSA, 5% glycerol, 100 nM DNA, 30 min on ice then 10 min RT; FP: 10 mM HEPES pH 8.0, 150-400 mM NaCl. Conditions: protein: recombinant; tags: His-MBP N-terminal, removed by TEV; label: 5'-Cy3 on strand 1 (EMSA); 6-FAM (FP); blunt.
In data set [4] the target is T1, TFAM. Nature of the data set: fluorescence polarization; 300 mM NaCl; EMSA: 10 mM HEPES pH 8.0, 500 mM NaCl, 2 mM DTT, 130 ug/ml BSA, 5% glycerol, 100 nM DNA, 30 min on ice then 10 min RT; FP: 10 mM HEPES pH 8.0, 150-400 mM NaCl. Conditions: protein: recombinant; tags: His-MBP N-terminal, removed by TEV; label: 5'-Cy3 on strand 1 (EMSA); 6-FAM (FP); blunt.
Data set [5] has as its target T1, TFAM. Put plainly: fluorescence polarization; 350 mM NaCl; EMSA: 10 mM HEPES pH 8.0, 500 mM NaCl, 2 mM DTT, 130 ug/ml BSA, 5% glycerol, 100 nM DNA, 30 min on ice then 10 min RT; FP: 10 mM HEPES pH 8.0, 150-400 mM NaCl. Conditions: protein: recombinant; tags: His-MBP N-terminal, removed by TEV; label: 5'-Cy3 on strand 1 (EMSA); 6-FAM (FP); blunt.
For data set [6], the target named is T1, TFAM. Put plainly: EcoRI cleavage protection; 10 mM MgCl2, 50 mM NaCl; EMSA: 10 mM HEPES pH 8.0, 500 mM NaCl, 2 mM DTT, 130 ug/ml BSA, 5% glycerol, 100 nM DNA, 30 min on ice then 10 min RT; FP: 10 mM HEPES pH 8.0, 150-400 mM NaCl. Conditions: protein: recombinant; tags: His-MBP N-terminal, removed by TEV; blunt.
Data set [7] concerns the target T1, TFAM. Put plainly: EMSA; 500 mM NaCl; apparent Kd; EMSA: 10 mM HEPES pH 8.0, 500 mM NaCl, 2 mM DTT, 130 ug/ml BSA, 5% glycerol, 100 nM DNA, 30 min on ice then 10 min RT; FP: 10 mM HEPES pH 8.0, 150-400 mM NaCl. As to conditions: protein: recombinant; tags: His-MBP N-terminal, removed by TEV; label: 5'-Cy3 on strand 1 (EMSA); 6-FAM (FP); blunt.
Data set [8] deals with T1, TFAM. Nature of the data set: X-ray crystallography; 2.7 A; EMSA: 10 mM HEPES pH 8.0, 500 mM NaCl, 2 mM DTT, 130 ug/ml BSA, 5% glycerol, 100 nM DNA, 30 min on ice then 10 min RT; FP: 10 mM HEPES pH 8.0, 150-400 mM NaCl. As to conditions: protein: recombinant; tags: His-MBP N-terminal, removed by TEV.
For data set [9], the target named is T1, TFAM. Put plainly: X-ray crystallography; 2.84 A; one TFAM bridges two DNA molecules; EMSA: 10 mM HEPES pH 8.0, 500 mM NaCl, 2 mM DTT, 130 ug/ml BSA, 5% glycerol, 100 nM DNA, 30 min on ice then 10 min RT; FP: 10 mM HEPES pH 8.0, 150-400 mM NaCl. Conditions: protein: recombinant; tags: His-MBP N-terminal, removed by TEV; 2 DNA molecules bridged per TFAM; ends stacked.

B1: DNAAA (dsDNA)
DNA 1: AAAAAGAATCATTTGGATATATAGGTAT
DNA 2: ATACCTATATATCCAAATGATTCTTTTT
As for B1, the Kd was 12 ± 1.5 nM with TFAM [1]; 79 ± 1.4 nM with TFAM [2]; 287 ± 15.7 nM in the data set with TFAM [3]; 877 ± 38.5 nM with TFAM [4]; 3850 ± 425 nM with TFAM [5].

B2: DNA2GG (dsDNA)
DNA 1: CTGAAGCCAGTTACCTTTGAAAAAAGAGTTGGTAGCTCTTGATCCAGGAATTCAACCACCGCTGGTAGCGGTGGTTTTTTTATTTGCAAGCAGCAGATTA
DNA 2: TAATCTGCTGCTTGCAAATAAAAAAACCACCGCTACCAGCGGTGGTTGAATTCCTGGATCAAGAGCTACCAACTCTTTTTTCAAAGGTAACTGGCTTCAG
Consider B2, for which, in the data set with TFAM [6], the binding result is listed as “binds”.

B3: DNAGG (dsDNA)
DNA 1: AAAAAGAACCATTTGGATACATAGGTAT
DNA 2: ATACCTATGTATCCAAATGGTTCTTTTT
In the case of B3, the Kd came to 86.1 ± 14.3 nM in the data set with TFAM [7]; 13.5 ± 0.1 nM in the data set with TFAM [1]; 55.5 ± 6 nM with TFAM [2]; 259 ± 48.2 nM in the data set with TFAM [3]; 1210 ± 113 nM in the data set with TFAM [4]; 5180 ± 502 nM with TFAM [5].

B4: LSP_B (dsDNA)
DNA 1: AATTGTCAGTGGGGGGTTGATT
DNA 2: AATCAACCCCCCACTGACAATT
With B4, the binding result in the data set with TFAM [8] was “binds”.

B5: NS2 (dsDNA)
DNA 1: ATCGGAAAGATAATCGAGAATC
DNA 2: GATTCTCGATTATCTTTCCGAT
In the case of B5, the binding result with TFAM [9] is listed as “binds”.
